# Article PMC8024709, “DNA ligase I fidelity mediates the mutagenic ligation of pol β oxidized and mismatch nucleotide insertion products in base excision repair”
# B1: one-nucleotide-gap DNA, template T (BLI) (dsDNA)
# DNA 1: CATGGGCGGCATGAACC
# DNA 2: GAGGCCCATCCTCACC
# DNA 3: GGTGAGGATGGGCCTCTGGTTCATGCCGCCCATG
# Assays:
# [1] = target: DNA ligase I (LIG1) wild-type (Homo sapiens, UniProt P18858 1-919); test: BLI; no Mg2+ or ATP listed in kinetics buffer; BLI (Octet QKe, streptavidin sensors, 40 nM DNA loaded, LIG1 10-2430 nM): Hepes pH 7.4, 200 mM NaCl, 0.5% BSA, 0.05% Tween 20, 20 °C; 1:1 binding model; details: protein: recombinant; tags: His-tag; label: 3'-biotin on downstream strand (S2); 1-nt gap opposite template T; 34-nt template (S7 equals S4 reversed to 5'-3') with 17-nt upstream and 16-nt downstream strands; outer ends blunt
# [2] = target: LIG1 E346A/E592A (EE/AA) low-fidelity mutant (Homo sapiens, UniProt P18858 1-919, E346A;E592A); test: as above; details: protein: recombinant; tags: His-tag; label: 3'-biotin on downstream strand (S2); 1-nt gap opposite template T; 34-nt template (S7 equals S4 reversed to 5'-3') with 17-nt upstream and 16-nt downstream strands; outer ends blunt
# LIG1 E346A/E592A (EE/AA) low-fidelity mutant, sequence (P18858 whole entry E346A/E592A): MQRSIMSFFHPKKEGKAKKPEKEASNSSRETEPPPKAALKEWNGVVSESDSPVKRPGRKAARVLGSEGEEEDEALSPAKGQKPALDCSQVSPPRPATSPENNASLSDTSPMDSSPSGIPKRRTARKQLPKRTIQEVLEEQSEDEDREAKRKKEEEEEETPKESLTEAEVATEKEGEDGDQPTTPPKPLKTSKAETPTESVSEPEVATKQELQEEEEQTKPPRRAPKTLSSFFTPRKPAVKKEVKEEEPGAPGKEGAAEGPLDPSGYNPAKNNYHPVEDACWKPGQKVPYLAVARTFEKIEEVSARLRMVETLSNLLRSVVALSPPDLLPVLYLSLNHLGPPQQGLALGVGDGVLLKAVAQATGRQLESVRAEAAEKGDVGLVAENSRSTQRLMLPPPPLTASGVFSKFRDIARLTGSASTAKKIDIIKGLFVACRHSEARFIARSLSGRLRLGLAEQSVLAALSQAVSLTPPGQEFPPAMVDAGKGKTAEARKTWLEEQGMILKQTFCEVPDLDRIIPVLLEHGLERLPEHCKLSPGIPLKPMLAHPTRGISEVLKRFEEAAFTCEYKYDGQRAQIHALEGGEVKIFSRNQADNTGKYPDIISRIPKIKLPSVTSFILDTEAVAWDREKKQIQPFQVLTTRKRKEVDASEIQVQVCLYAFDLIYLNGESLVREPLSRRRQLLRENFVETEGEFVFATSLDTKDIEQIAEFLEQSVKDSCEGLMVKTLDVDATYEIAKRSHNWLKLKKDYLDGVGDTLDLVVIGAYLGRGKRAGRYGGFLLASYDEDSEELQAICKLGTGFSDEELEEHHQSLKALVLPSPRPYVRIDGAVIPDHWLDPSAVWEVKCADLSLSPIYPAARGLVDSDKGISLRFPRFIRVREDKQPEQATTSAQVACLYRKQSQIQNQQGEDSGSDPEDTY
# DNA ligase I (LIG1) wild-type, sequence (P18858 whole entry): as the sequence (P18858 whole entry E346A/E592A) above, with A346E, A592E counted along it
binder,measurement,setting,value
B1,Kd,[1],~83 nM
same,Kd,[2],~20 nM
